Values quoted from earlier work as cited in paper PMC2682639.
pKd: −log10 of the molar value.

Biological target: Hint1 (Homo sapiens) (UniProt P49773)

Hint1, sequence (P49773 2-126): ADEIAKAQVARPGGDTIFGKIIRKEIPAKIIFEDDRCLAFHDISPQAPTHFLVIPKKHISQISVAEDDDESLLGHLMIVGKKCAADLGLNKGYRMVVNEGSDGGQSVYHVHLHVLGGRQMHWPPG

pKd: > 9.00
Substance: Hint1 (from UniProt P49773)
